Results as given in doi:10.1101/2022.04.24.489327.

Target: LRRK2 wild-type (UniProt Q5S007 1-2527)
Assay: EMSA

LRRK2 wild-type, sequence (Q5S007 whole entry): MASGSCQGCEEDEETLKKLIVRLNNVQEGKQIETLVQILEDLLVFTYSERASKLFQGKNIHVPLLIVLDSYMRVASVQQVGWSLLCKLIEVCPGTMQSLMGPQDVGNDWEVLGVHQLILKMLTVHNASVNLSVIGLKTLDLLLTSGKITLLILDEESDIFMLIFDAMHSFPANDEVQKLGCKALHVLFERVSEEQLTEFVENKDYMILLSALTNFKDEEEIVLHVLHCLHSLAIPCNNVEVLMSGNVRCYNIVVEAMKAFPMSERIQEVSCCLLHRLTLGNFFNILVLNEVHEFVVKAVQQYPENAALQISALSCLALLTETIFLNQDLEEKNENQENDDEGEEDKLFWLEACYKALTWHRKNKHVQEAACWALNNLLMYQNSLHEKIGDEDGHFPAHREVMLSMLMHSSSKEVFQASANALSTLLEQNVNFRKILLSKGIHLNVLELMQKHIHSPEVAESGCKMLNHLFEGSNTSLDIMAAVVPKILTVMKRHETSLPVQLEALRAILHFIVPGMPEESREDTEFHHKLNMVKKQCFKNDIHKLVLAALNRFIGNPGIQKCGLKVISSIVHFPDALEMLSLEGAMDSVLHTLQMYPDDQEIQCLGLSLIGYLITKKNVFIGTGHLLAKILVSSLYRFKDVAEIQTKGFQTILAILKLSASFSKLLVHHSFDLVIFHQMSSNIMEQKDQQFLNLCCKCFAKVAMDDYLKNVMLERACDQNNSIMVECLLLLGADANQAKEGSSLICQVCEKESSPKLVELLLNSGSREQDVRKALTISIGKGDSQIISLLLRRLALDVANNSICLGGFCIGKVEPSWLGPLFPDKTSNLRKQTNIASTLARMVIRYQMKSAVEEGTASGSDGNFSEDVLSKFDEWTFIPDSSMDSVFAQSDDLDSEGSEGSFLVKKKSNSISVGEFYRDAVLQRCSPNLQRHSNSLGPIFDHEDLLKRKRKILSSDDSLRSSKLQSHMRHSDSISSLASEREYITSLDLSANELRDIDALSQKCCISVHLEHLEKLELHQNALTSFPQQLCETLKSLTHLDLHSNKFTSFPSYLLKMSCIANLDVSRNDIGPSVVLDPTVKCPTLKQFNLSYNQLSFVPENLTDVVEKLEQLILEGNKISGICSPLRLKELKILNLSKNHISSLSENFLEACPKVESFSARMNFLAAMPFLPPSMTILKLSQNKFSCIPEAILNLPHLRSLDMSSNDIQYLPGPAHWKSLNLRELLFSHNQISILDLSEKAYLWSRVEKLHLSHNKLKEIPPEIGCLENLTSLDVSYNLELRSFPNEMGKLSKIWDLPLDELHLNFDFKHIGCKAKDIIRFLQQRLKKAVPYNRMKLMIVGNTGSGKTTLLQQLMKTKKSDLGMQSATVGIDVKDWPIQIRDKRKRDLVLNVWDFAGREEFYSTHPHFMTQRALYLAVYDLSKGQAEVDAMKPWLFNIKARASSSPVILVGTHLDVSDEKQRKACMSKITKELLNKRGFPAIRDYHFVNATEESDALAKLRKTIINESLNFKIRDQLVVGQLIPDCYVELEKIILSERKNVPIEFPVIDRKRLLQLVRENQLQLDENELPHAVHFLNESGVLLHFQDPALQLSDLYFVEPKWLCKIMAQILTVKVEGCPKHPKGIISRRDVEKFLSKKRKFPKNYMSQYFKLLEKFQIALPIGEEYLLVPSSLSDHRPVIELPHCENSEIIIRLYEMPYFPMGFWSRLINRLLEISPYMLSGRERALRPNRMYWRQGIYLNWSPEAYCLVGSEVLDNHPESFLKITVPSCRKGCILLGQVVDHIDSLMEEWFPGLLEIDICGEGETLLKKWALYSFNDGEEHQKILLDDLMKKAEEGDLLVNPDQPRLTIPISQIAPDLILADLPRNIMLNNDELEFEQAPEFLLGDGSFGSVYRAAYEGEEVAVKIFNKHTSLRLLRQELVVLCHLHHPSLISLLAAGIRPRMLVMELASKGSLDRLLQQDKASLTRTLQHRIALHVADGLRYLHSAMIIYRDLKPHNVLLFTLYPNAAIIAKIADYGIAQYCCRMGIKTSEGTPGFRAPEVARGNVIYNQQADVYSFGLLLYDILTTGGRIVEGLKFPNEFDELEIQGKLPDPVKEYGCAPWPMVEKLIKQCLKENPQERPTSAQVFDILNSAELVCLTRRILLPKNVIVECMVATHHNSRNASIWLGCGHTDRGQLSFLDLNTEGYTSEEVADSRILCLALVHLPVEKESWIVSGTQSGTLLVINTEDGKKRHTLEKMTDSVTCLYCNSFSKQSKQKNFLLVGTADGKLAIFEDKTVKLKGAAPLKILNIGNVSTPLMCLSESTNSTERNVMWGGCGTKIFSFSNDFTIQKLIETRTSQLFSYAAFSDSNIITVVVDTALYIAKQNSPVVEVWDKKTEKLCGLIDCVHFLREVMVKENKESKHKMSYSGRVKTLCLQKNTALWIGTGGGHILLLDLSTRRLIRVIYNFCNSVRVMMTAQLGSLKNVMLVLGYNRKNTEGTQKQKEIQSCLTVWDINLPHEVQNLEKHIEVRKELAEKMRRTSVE

Binder	binding result
GGAAACAGUCAUUUGCGCACAACUUUAAAAGUCUGCAU (ssRNA) [BDNF 3'UTR control segment without neuronal ELAV sites]	no binding
AGAAAAAAUAUUUAUUGUAUUUUAGUAUAUUUAUAUAA (ssRNA) [BDNF 3'UTR neuronal ELAV binding segment (U-rich)]	no binding
